B2: Snu13p (recombinant, GST cleaved off) (natural protein, S. cerevisiae)
chain: GPMSAPNPKAFPLADAALTQQILDVVQQAANLRQLKKGANEATKTLNRGISEFIIMAADCEPIEILLHLPLLCEDKNVPYVFVPSRVALGRACGVSRPVIAASITTNDASAIKTQIYAVKDKIETLLI

How the values were obtained:
[1] = biological target: T1, His6-tagged WT Snu13p (co-expression) (S. cerevisiae, UniProt P39990 1-126); test: pull-down
T1 sequence (looked up): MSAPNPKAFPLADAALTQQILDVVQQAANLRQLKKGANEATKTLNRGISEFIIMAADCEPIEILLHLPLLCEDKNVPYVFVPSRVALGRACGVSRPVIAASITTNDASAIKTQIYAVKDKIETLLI

[2] = biological target: T2, His6Rsa1p230–381 (S. cerevisiae, UniProt Q08932 230-381); test: native gel or EMSA
T2 sequence (looked up): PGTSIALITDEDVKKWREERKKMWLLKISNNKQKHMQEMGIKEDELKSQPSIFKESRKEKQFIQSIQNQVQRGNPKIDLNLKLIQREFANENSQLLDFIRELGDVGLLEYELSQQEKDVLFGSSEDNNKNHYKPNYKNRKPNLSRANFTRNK

[3] = biological target: B2; test: ITC

B1: full-length Rsa1p (co-expression) (natural protein, S. cerevisiae, UniProt Q08932 1-381, looked up)
chain: MNYNNFENSKGDGHSRLPKPTYSGTLSDGYDESKIKRQKTDSAFNAAYSPHMYPNSPYYEGSWNTGYTPQLHHVAPHNQYFHPIQPSTQYNYTSPPNYTENYIPPVHQNISYAPALNLQKWPSSYCENTQALKNDKDYQTSISYEDVAIPTVKEIQLIEKNRGKDTFMNEISPVPSSKDQASAEPTEIPRKDPELANSNAEDDHNNLGLEDDDRDEQLESEGLGKVVLVPGTSIALITDEDVKKWREERKKMWLLKISNNKQKHMQEMGIKEDELKSQPSIFKESRKEKQFIQSIQNQVQRGNPKIDLNLKLIQREFANENSQLLDFIRELGDVGLLEYELSQQEKDVLFGSSEDNNKNHYKPNYKNRKPNLSRANFTRNK
B1 was tested, and the “stoichiometry N” value [1] was about 1.

B2: binds [2].

In the case of TDEDVKKWREERKKMWLLKISN (peptide, UniProt Q08932 238-259, looked up) [synthetic peptide Rsa1p238–259], the Kd [3] is reported as 18 ± 1 µM.

From publication PMC3919607 (Nucleic Acids Research, 2013)
